# Laboratory results as given in patent publication US8741840B2, “BMP-7 for use in treating neointimal hyperplasia” (Washington University, priority 2008, dated 2014).
# B1: BMP-7: bone morphogenetic protein-7 (osteogenic protein-1), mineralization-countering morphogen; provided by Johnson and Johnson (protein, listed as Homo sapiens)
# chain: STGSKQRSQNRSKTPKNQEALRMANVAENSSSDQRQACKKHELYVSFRDLGWQDWIIAPEGYAAYYCEGECAFPLNSYMNATNHAIVQTLVHFINPETVPKPCCAPTQLNAISVLYFDDSSNVILKKYRNMVVRACGCH
# Columns and labels:
# [1] = system: LDLR−/− mice with CKD on high fat diet; assay: Chemical quantitation of aortic calcium in high fat fed LDLR-/- mice with CKD (treatment study, weeks 22-28); assay type: in vivo, mouse; conditions: therapy weeks 22-28 post natal; BMP-7 10 μg/kg IP weekly; CaCO3 or LaCO3 3% in diet (FIG. 1A, FIG. 2)
# Description: At 10 weeks, animals were either continued on this chow diet or initiated on a high cholesterol (0.15%) diet containing 42% calories as fat [Harlan Teklad, Madison Wis., Product No. TD88137].
# Induction of CKD: A two-step procedure was utilized to create uremia as previously described. (Davies 2003; Lund, 2004)^19;21 Saphenous vein blood samples were taken 1 week following the second surgery to assess baseline post-surgical renal function. Animals were sacrificed under anesthesia 28 weeks post natal. At the time of sacrifice, blood was taken by intracardiac stab, and the heart and aorta dissected en bloc. The BMP-7 treated group received intraperitoneal injection of BMP-7 10 μg/kg dry weight once weekly in 100 μl vehicle [mannitol (5% w/v), NaAcetate buffer (20 mM, pH 4.0-4.5), sterile water].
# Group 1 were LDLR−/− mice on the high fat diet sacrificed at 22 weeks. Group 2 were LDLR−/− mice with CKD fed the high fat diet and treated weekly from 22 to 28 weeks with vehicle IP. […]
# Chemical Calcification Quantitation: similar to our previous experimental plans (Davies 2003; Davies 2005).^19;20 Aorta and hearts were dissected at sacrifice, and all extraneous tissue removed by blunt dissection under a dissecting microscope. […]
# Mice were treated with 10 mcg/kg BMP-7 injected intraperitoneally once weekly. […] The data are expressed as group mean±SEM, n=4-7.
# The data are expressed as group mean±SEM, n=4-5.
# [2] = system: LDLR−/− mice with CKD on high fat diet; conditions: LDLR-/- mice with CKD fed high fat diets; previous studies (Davies 2003; Davies 2005); cited from earlier work
# [3] = system: LDLR−/− high fat fed mice; assay: Histology of proximal aorta (alizarin red): calcified atherosclerotic plaques; assay type: in vivo, mouse
# Description: Tissue Preparation: Resected specimens were flash frozen in liquid nitrogen, then divided as follows: the heart, ascending aorta and aortic arch were separated from the descending aorta, and bisected sagittally through the aortic outflow tract. The descending aorta was bisected coronally, approximately halfway along its length. In order to visualize calcification in the tissue sections, Slices (5 μm thick) were cut and stained with von Kossa and Trap staining.
# Additional mice were enrolled to the study for qualitative analysis of aortas to quantitate the effects of the treatments, because aortas of the experimental animals were destroyed by the technique of quantifying the aortic calcium content. Vascular calcification was largely aortic atherosclerotic plaque associated (FIG. 3), and punctate calcifications in the tunica media were observed. Panel A: Large lipid laden plaque (between arrows) in proximal aorta of a sham-operated high fat fed LDLR−/− mouse. Thick arrows identify focal calcifications in the base of the plaque. Panel B: A large calcified plaque (between arrows) in the proximal aorta of a CKD high fat fed LDLR−/− mouse. Panel C: A large lipid laden plaque (between arrows) in the proximal aorta of a BMP-7 treated CKD high fat fed LDLR−/− mouse. The stain is alizarin red. Magnification is 400× in A-C.
molecule,measurement,setting,value
B1,aortic calcium (vascular calcification) versus the 22 week start point,[1],significant reduction of aortic calcification compared to the 22 week start point
same,development of aortic calcification (prevention studies),[2],prevented the development of aortic calcification
same,size of the atherosclerotic lesions,[3]; proximal aorta (FIG. 3),did not decrease the size of the atherosclerotic lesions
same,plaque associated calcium deposition,"[3]; proximal aorta, alizarin red stain (FIG. 3)",diminished plaque associated calcium deposition
